What is called Km is the substrate concentration at which the rate is half of its maximum. A word on the kcat: it is the maximal rate divided by the concentration of active sites. In general, kcat/Km refers to the second-order rate constant that governs catalysis at low substrate concentration.

The subject of the data set is CC(=O)N[C@H]1[C@H](Oc2ccc([N+](=O)[O-])cc2)O[C@H](CO)[C@@H](O)[C@@H]1O. As to the kind of experiment: p-nitrophenol release, A405, non-linear regression. Type of data set: biochemical, Bifidobacterium longum subsp. infantis. The settings on record: pH 5.0, 37 °C, 50 mM Na2HPO4, apparent kinetics.

In the case of “Blon_2355 (Bifidobacterium longum subsp. infantis ATCC 15697 = JCM 1222 = DSM 20088)”, the Km worked out at 480 ± 20 µM.

Take “Blon_0732 (Bifidobacterium longum subsp. infantis ATCC 15697 = JCM 1222 = DSM 20088)”: the Michaelis-Menten constant (Km) turned out to be 1640 ± 850 µM, the catalytic constant (kcat) came to 104 ± 46.2 s⁻¹ and the specificity constant (kcat/Km) stood at 65000 ± 543 M⁻¹ s⁻¹.

“Blon_0459 (Bifidobacterium longum subsp. infantis ATCC 15697 = JCM 1222 = DSM 20088)”: the Michaelis-Menten constant (Km) turned out to be 330 ± 40 µM.

The record behind these values is paper PMC7568402.
